The values that follow come from patent US20040254139, “Oligonucleotides antagonist for human tumor necrosis factor alpha (TNF-alpha)” (published 2004).

The target of data set [1] is T1, TNF-alpha (tumor necrosis factor alpha) (Homo sapiens, UniProt P01375 P01375:77-233). The data set is described as follows: ELONA; affinity and inhibition activity stated unchanged. Particulars: chain copies: 3.
In data set [2] the target is T1, TNF-alpha (tumor necrosis factor alpha). Put plainly: ELONA; affinity unchanged; still positive at 3 ng/ml. To be noted: chain copies: 3.

T1 sequence (P01375 77-233, one chain of several): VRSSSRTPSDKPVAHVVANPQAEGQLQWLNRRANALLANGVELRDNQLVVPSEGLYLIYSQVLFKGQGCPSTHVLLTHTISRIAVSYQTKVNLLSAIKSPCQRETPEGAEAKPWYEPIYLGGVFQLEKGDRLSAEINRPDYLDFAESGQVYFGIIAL

As to GCUUAGCAAACGCACCGCACAGGCCCGCGG (ssRNA, 2'-F and 2'-NH2 pyrimidines (printed 2-fluorin and 2-amido)) [truncated modified SEQ 20], in data set [1], the binding result is “binds”.

Consider CCUCAUAGACUACUGUUAAGCCUCGAGG (ssRNA, 2'-NH2 pyrimidines (printed 2-amido)) [truncated amino-modified SEQ 25], for which the binding result in data set [2] is listed as “binds”.
